This note sets out measurements from patent publication EP4762086.

The assay has as its target MUC5AC antigen (human, UniProt P98088). The assay is described as follows: SPR. (In general: SPR reads the build-up and loss of mass on a sensor chip optically.)

Where “and” joins values, the source holds several entries; their conditions need not be identical. Equal values may be shown once.

B1: NEO-102 (Ensituximab) (antibody, V domains shown)
VH: QVQLKESGPDLVAPSQSLSITCTVSGFELSKFGVIWVRQPPGKGLEWLGVIWGDGSTVYNSKLISRLSISKENSKSQVFLKLNSLQADDTATYYCVKPGGDYWGHGTSVTVSS
VL: QVVLTQSPVIMSASPGEKVTMTCSASSSISYMYWYQQKPGTSPKRWIYDTSKLGSGVPARFSGSGSGTSYSLTISNMEAGDAATYYCHQRDSYPWTFGGGTNLEIK
A word on the Kd: it is the equilibrium constant for the complex coming apart. A high value points to a looser complex. With B1, the Kd is 7.38 nM and 5.6 nM.
